Read-outs that look alike come from different tables or passages of the source.

Test [1] concerns the target photoactivated rhodopsin (Rho*, Meta II) (bovine) (UniProt P02699). The test can be described thus: SEC.
The target is the same in test [2]. As to the kind of experiment: SEC. The source holds these as a separate data set.

Chain of photoactivated rhodopsin (Rho*, Meta II) (bovine) (P02699 whole entry): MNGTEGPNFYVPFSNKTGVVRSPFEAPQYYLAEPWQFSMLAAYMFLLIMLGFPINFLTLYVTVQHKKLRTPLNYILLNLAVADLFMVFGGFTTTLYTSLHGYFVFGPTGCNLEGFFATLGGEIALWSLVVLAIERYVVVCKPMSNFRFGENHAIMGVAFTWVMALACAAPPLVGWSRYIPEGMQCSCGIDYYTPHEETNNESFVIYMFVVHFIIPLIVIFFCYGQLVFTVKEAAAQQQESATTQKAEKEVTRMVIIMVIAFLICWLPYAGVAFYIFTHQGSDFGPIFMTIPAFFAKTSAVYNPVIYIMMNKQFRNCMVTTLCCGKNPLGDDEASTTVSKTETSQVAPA

For the substance “transducin (Gt), rod cell-specific heterotrimeric G protein (from UniProt P04695 1-350; P62871 1-340; P02698 1-74) (complex)”, the stoichiometry N (Rho*:Gt molar ratio) in test [1] and in test [2] was 1 throughout.

(Values after PMC2753473.)
